A word on the Kd: it is the free concentration of one partner at which half of the binding sites on the other are occupied at equilibrium, for simple one-to-one binding.

The target in data set [1] is T1, Bpur (Borrelia burgdorferi B31, UniProt O51076 1-122).
T1 sequence: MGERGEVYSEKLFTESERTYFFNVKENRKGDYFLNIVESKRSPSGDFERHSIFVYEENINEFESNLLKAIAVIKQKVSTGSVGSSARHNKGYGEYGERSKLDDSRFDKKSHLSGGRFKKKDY
The data set can be described thus: EMSA; simultaneous with Bio-2; EMSA: 50 mM Tris pH 7.5, 25 mM KCl, 1 mM MgCl2, 100 nM DTT, 10% glycerol, 0.01% Tween 20, 0.1% PMSF; temperature not stated; RNA/ssDNA probes preheated at 56 C, RiboGuard with RNA. The note with it: protein: recombinant; tags: His tag (pET101, nickel purification); chain copies: 2; label: 5' biotin. For orientation: In EMSA bound probe runs differently from free probe, usually more slowly.

Data set [2] deals with T1, Bpur. Briefly: EMSA; EMSA: 50 mM Tris pH 7.5, 25 mM KCl, 1 mM MgCl2, 100 nM DTT, 10% glycerol, 0.01% Tween 20, 0.1% PMSF; temperature not stated; RNA/ssDNA probes preheated at 56 C, RiboGuard with RNA. The note with it: protein: recombinant, tags: His tag (pET101, nickel purification), chain copies: 2.
The target in data set [3] is T1, Bpur. Briefly: competition; 100-fold excess vs Bio-1; EMSA: 50 mM Tris pH 7.5, 25 mM KCl, 1 mM MgCl2, 100 nM DTT, 10% glycerol, 0.01% Tween 20, 0.1% PMSF; temperature not stated; RNA/ssDNA probes preheated at 56 C, RiboGuard with RNA. The note with it: protein: recombinant; tags: His tag (pET101, nickel purification); chain copies: 2.
Data set [4] concerns the target T1, Bpur. The data set can be described thus: EMSA; 50-500 nM Bpur; EMSA: 50 mM Tris pH 7.5, 25 mM KCl, 1 mM MgCl2, 100 nM DTT, 10% glycerol, 0.01% Tween 20, 0.1% PMSF; temperature not stated; RNA/ssDNA probes preheated at 56 C, RiboGuard with RNA. The settings on record: protein: recombinant; tags: His tag (pET101, nickel purification); chain copies: 2; label: 5' biotin.

Data set [5] deals with T1, Bpur. The data set can be described thus: EMSA; simultaneous with Bio-3; EMSA: 50 mM Tris pH 7.5, 25 mM KCl, 1 mM MgCl2, 100 nM DTT, 10% glycerol, 0.01% Tween 20, 0.1% PMSF; temperature not stated; RNA/ssDNA probes preheated at 56 C, RiboGuard with RNA. The settings on record: protein: recombinant; tags: His tag (pET101, nickel purification); chain copies: 2; label: 5' biotin.

B1: Bio-3 (dsDNA)
DNA 1: GGAGAGATTTTGGGGAGTTGTTTAAAATTACATTTGCGTTTTGTTAAAATGTAAC
DNA 2: GTTACATTTTAACAAAACGCAAATGTAATTTTAAACAACTCCCCAAAATCTCTCC
On to B1, for which the binding result in the data set with Bpur [1] is “binds”.

B2: Bio-sense-RNA (ssRNA)
RNA: AAUGGAGAGAUUUUGGGGAGUUGUUUAAAAUUACAUUUGCGUUUUGUUAAAAUG
As to B2, the Kd with Bpur [2] (label: 5' biotin) is 13 nM.

B3: competitor C (dsDNA)
DNA 1: GTAGTGCATTTGCAATGGAGAGATTTTGGGGAGTTGTTTAAAATTAC
DNA 2: GTAATTTTAAACAACTCCCCAAAATCTCTCCATTGCAAATGCACTAC
Consider B3, for which the binding result with Bpur [3] is “binds”.

B4: Bio-dsDNA (dsDNA)
DNA 1: AATGGAGAGATTTTGGGGAGTTGTTTAAAATTACATTTGCGTTTTGTTAAAATG
DNA 2: CATTTTAACAAAACGCAAATGTAATTTTAAACAACTCCCCAAAATCTCTCCATT
With B4, the Kd with Bpur [2] (label: 5' biotin (one strand), blunt) turned out to be 130 nM.

B5: Bio-sense-ssDNA (ssDNA)
DNA: AATGGAGAGATTTTGGGGAGTTGTTTAAAATTACATTTGCGTTTTGTTAAAATG
On to B5, for which the Kd with Bpur [2] (label: 5' biotin) was 390 nM.

B6: Bio-1 (dsDNA)
DNA 1: GAGTAGTGCATTTGCAATGGAGAGATTTTGGGGAGTTGTTTAAAATTACATTTGCGTTTTGTTAAAATGTAACAGCTGAATGTAACAAAATTATATATTTAAATCTTGAAATA
DNA 2: TATTTCAAGATTTAAATATATAATTTTGTTACATTCAGCTGTTACATTTTAACAAAACGCAAATGTAATTTTAAACAACTCCCCAAAATCTCTCCATTGCAAATGCACTACTC
As for B6, the binding result with Bpur [4] is “binds”.

B7: Bio-2 (dsDNA)
DNA 1: TAAAATTACATTTGCGTTTTGTTAAAATGTAACAGCTGAATGTAAC
DNA 2: GTTACATTCAGCTGTTACATTTTAACAAAACGCAAATGTAATTTTA
For B7, the binding result with Bpur [5] is “no binding”.

These data come from publication PMC3764826, “Bpur, the Lyme Disease Spirochete's PUR Domain Protein”.
